Measurements: patent publication US20230416351A1

Target: recombinant VEGF165 protein (human) (UniProt P15692)
Assay: SPR in vitro binding, drug and recombinant VEGF165, 37 C

recombinant VEGF165 protein (human), sequence (P15692 other isoform, or with tags, fused parts or gaps): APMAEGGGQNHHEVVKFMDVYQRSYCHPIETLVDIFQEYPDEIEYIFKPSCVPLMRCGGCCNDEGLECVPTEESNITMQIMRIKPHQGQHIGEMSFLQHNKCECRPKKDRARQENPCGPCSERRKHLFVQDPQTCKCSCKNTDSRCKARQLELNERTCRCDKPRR

- Kd: 0.457 nM
Substance: aflibercept (Fc fusion)
